What was measured:
Notch1 signaling = assay: co-culture assay of ligand-induced Notch signaling (CSL-luciferase reporter; HeLa expressing Notch1, ligand-expressing 293/Bosc cells); type: cell-based; details: for activation of Notch1 signaling by Notch ligands: N1ECD/Fc expression vector co-transfected with full-length Notch1 and CSL-luciferase reporter in HeLa cells, co-culture with ligand expressing cells
Method: Notch and Notch responsive transcriptional reporters are expressed in a “Notch-responsive” cell, HeLa. Notch ligands, Jagged-1, Delta-like 1, or Delta-like 4 are expressed in a “ligand-presenting” cell, 293. Expression is mediated by transfection of individual cell populations, cells are co-cultured, and then assayed for Notch-dependent reporter activity.
To determine ligand-induced Notch signaling, co-culture assays were performed using HeLa and 293-derived Bosc cells. Transient transfections were performed by calcium phosphate precipitation. Hela cells plated 1-day prior in 10-cm plates at 1.5×10^6 were transfected with 333 ng of pBOS Notch1, 333 ng pGA981-6, and 83 ng pLNC lacZ with either 666 ng pCMV-Fc or pHyTC-N1ECDFc (333 ng for x1, 666 ng for x2). Bosc cells plated 1-day prior in 10-cm plates at 4×10^6 were transfected with either 680 ng pHyTc-Jagged1, pHyTc-Dll1, pHyTc-Dll4, or pHyTc-x (empty vector). One day after transfection, the cells were co-cultured in triplicate (HeLa:Bosc, 1:2) on 12-well plates for 24 hours. Cells were harvested and luciferase activity was determined 2-days post-transfection using the Enhanced Luciferase assay kit (BD PharMingen), and […] activity was determined using the Galacto-Light Plus kit (PE Biosystems). All assays were performed in a Berthold dual-injection luminometer.
An in vitro co-culture system (FIG. 3) with ligands expressed on one cell and Notch receptor activation scored in another cell was used to measure transcriptional activation of the Notch pathway. […] The N1ECD/Fc expression vector was co-transfected at different ratios with full-length Notch1 and the CSL-luciferase reporter in HeLa cells, followed by co-culture with ligand expressing 293 cells. We observed that activation of Notch1 signaling by Notch ligands was reduced by N1ECD/Fc expression. […] Notch1ECD/Fc could block signaling mediated by Jagged1, Delta-like 1 or Delta-like 4.

CBF1 promoter activity = assay: VEGF-induced Notch signaling, CBF1 promoter (CSL-luciferase) reporter activity in HUVEC; type: cell-based, human; details: for inhibition of CBF1 promoter activity induced by Ad-VEGF: 40 MOI for each adenovirus; for VEGF-induced CBF1 promoter / CSL-luciferase reporter activity: Ad-VEGF-transduced HUVEC
Method: To determine VEGF-induced Notch signaling, HUVEC which were infected with adenovirus were used. HUVEC plated 1-day prior in 6 well plates at 8.0×10^5 were infected with either Ad-LacZ as control or Ad-VEGF at indicated m.o.i. in the presence or absence of Ad-N1ECD/Fc. Two days after infection, infected HUVEC were re-seeded into 24-well plate at 1.5×10^5 cell in triplicate and cultured for 24 hours, and then transfected with 12.5 ng pRL-SV40 (Promega) and 137.5 ng pGA981-6 using Effectene transfection reagent (Qiagen). Cells were harvested either 1 or 2 days post-transfection and luciferase activity was determined by using the Dual-Luciferase® Reporter Assay System (Promega).
One can measure Notch signaling function by measuring transcriptional activity of CBF1 promoter, which is activated by binding of Notch-IC to CBF1. We measured CBF1 promoter activity in HUVEC which was infected with adenovirus encoding VEGF-165 at different MOI (FIG. 6). Induction of CBF1 promoter was clearly detected in Ad-VEGF-infected HUVEC, compared to Ad-LacZ-infected cells in the MOI dependent manner. […] Thus VEGF induced Notch signaling activity.

B1: N1ECDFc: Notch-based fusion protein or decoy: Notch1 extracellular domain EGF repeats fused to Fc; expressed from plasmid or adenovirus (Ad-N1ECDFc) (protein)
chain: ARGLRCSQPSGTCLNGGRCEVANGTEACVCSGAFVGQRCQDPSPCLSTPCKNAGTCYVVDHGGIVDYACSCPLGFSGPLCLTPLANACLANPCRNGGTCDLLTLTEYKCRCPPGWSGKSCQQADPCASNPCANGGQCLPFESSYICGCPPGFHGPTCRQDVNECSQNPGLCRHGGTCHNEIGSYRCACRATHTGPHCELPYVPCSPSPCQNGGTCRPTGDTTHECACLPGFAGQNCEENVDDCPGNNCKNGGACVDGVNTYNCRCPPEWTGQYCTEDVDECQLMPNACQNAGTCHNSHGGYNCVCVNGWTGEDCSDNIDDCASAACFQGATCHDRVASFYCECPHGRTGLLCHLNDACISNPCNEGSNCDTNPVNGKAICTCPRGYTGPACSQDVDECALGANPCEHAGKCLNTLGSFECQCLQGYTGPRCEIDVNECISNPCQNDATCLDQIGEFQCICMPGYEGVYCEINTDECASSPCLHNGRCVDKINEFLCQCPKGFSGHLCQYDVDECASTPCKNGAKCLDGPNTYTCVCTEGYTGTHCEVDIDECDPDPCHIGLCKDGVATFTCLCQPGYTGHHCETNINECHSQPCRHGGTCQDRDNYYLCLCLKGTTGPNCEINLDDCASNPCDSGTCLDKIDGYECACEPGYTGSMCNVNIDECAGSPCHNGGTCEDGIAGFTCRCPEGYHDPTCLSEVNECNSNPCIHGACRDGLNGYKCDCAPGWSGTNCDINNNECESNPCVNGGTCKDMTSGYVCTCREGFSGPNCQTNINECASNPCLNQGTCIDDVAGYKCNCPLPYTGATCEVVLAPCATSPCKNSGVCKESEDYESFSCVCPTGWQGQTCEIDINECVKSPCRHGASCQNTNGSYRCLCQAGYTGRNCESDIDDCRPNPCHNGGSCTDGVNAAFCDCLPGFQGAFCEEDINECATNPCQNGANCTDCVDSYTCTCPTGFNGIHCENNTPDCTESSCFNGGTCVDGINSFTCLCPPGFTGSYCQYDVNECDSRPCLHGGTCQDSYGTYKCTCPQGYTGLNCQNLVRWCDSAPCKNGGKCWQTNTQYHCECRSGWTGFNCDVLSVSCEVAAQKRGIDVTLLCQHGGLCVDEEDKHYCHCQAGYTGSYCEDEVDECSPNPCQNGATCTDYLGGFSCKCVAGYHGSNCSEEINECLSQPCQNGGTCIDLTNTYKCSCPRGTQGVHCEINVDDCHPPLDPASRSPKCFNNGTCVDQVGGYTCTCPPGFVGERCEGDVNECLSNPCDPRGTQNCVQRVNDFHCECRAGHTGRRCESVINGCRGKPCRNGGVCAVASNTARGFICRCPARFEGATCENDARTCGSLRCLNGGTCISGPRSPTCLCLGSFTGPECQFPASSPCVGSNPCYNQGTCEPTSESPFYRCLCPAKFNGLLCHILDYSFTDLGPG
modifications: left off: a dimerising Fc or GST
concentration-dependency of inhibiting signaling (Notch1 signaling; 2:1 ratio of N1ECD/Fc to Notch1 compared with 1:1 ratio): more effective | activation of Notch1 signaling by Notch ligands (Notch1 signaling): inhibition | activation of Notch1 signaling by Notch ligands (Notch1 signaling; listed as N1ECD/Fc): reduced | signaling mediated by Delta-like 1 (Notch1 signaling; co-culture with Delta-like 1 expressing cells): block | signaling mediated by Delta-like 4 (Notch1 signaling; co-culture with Delta-like 4 expressing cells): block | signaling mediated by Jagged1 (Notch1 signaling; co-culture with Jagged1 expressing cells): block | inhibition of CBF1 promoter activity induced by Ad-VEGF (CBF1 promoter activity; 24 hr after reporter gene transfection): 60% | inhibition of CBF1 promoter activity induced by Ad-VEGF (CBF1 promoter activity; 48 hr after reporter gene transfection): 90% | VEGF-induced CBF1 promoter / CSL-luciferase reporter activity (CBF1 promoter activity): clearly decreased | VEGF-induced CBF1 promoter / CSL-luciferase reporter activity (CBF1 promoter activity; listed as Notch fusion protein): clearly reduced
